Measured values reported in patent publication US5911991A, “Malarial binding site in duffy blood group protein” (New York Blood Center, Inc., priority 1996, dated 1999).
Where “and” joins values, the source holds several entries; their conditions need not be identical. Equal values may be shown once. Read-outs that look alike come from different tables or passages of the source. Ends that are not written are not given here.

How the values were obtained:
[1] = tested on: Region II of the P. knowlesi Duffy antigen binding protein (α); details: read-out: concentration for 50% inhibition of erythrocyte binding, human erythrocytes
Excerpt: To study the ability of peptides from the Duffy antigen to inhibit erythrocyte binding, a binding assay using the transfected Cos cells was employed, based on a method previously described (Chitnis et al. 1994). This method measures interaction between the malarial Duffy antigen binding ligand expressed by the Cos cells and Duffy protein on erythrocytes. The ability of an analyte to interfere with the cellular binding can be quantitated by comparing the number of Cos cells surrounded by rosettes of erythrocytes in the control versus the number of rosettes formed in the presence of the analyte.
Transfected Cos cells were preincubated for 1 h in a 5% CO2 incubator at 37° C. in 0.9 mL of complete Dulbecco's modified Eagle's medium (cDMEM) containing a series of concentrations (0 to 100 μM) of the peptides. One hundred microliters of human or rhesus erythrocytes at a hematocrit of 10% were added to wells containing the peptides and allowed to bind over 2 h at 37° C. in a 5% CO2 incubator. Non-adherenterythrocytes were removed by washing the Cos7 cells then with PBS. The numbers of rosettes were scored in 20 fields of view at a magnification of 40× using an inverted microscope. Inhibition curves were drawn for three independent experiments and used to determine concentrations of the peptides required to achieve 50% inhibition. […]

[2] = target: T1, Region II of P. falciparum EBA-175 (Plasmodium falciparum, UniProt P19214); assay: cell-based
T1 construct: expressed in transfected cells; host or cells: Cos7 cells (ATCC CRL 1651)

[3] = target: rhesus Duffy blood group antigen on normal rhesus erythrocytes (rhesus monkey) (UniProt Q95LF2)
[4] = target: deglycosylated rhesus Duffy blood group antigen on N-glycanase-treated rhesus erythrocytes (rhesus monkey) (UniProt Q95LF2)
[5] = target: Region II of the P. knowlesi β protein expressed on the Cos7 cell surface (Plasmodium knowlesi; Herpes simplex virus) (UniProt P50493)
[6] = tested on: P. vivax Region II; details: previously shown (Horuk et al. 1993; Chitnis et al. 1994); cited from earlier work
P. vivax Region II, sequence (P22290 211-521): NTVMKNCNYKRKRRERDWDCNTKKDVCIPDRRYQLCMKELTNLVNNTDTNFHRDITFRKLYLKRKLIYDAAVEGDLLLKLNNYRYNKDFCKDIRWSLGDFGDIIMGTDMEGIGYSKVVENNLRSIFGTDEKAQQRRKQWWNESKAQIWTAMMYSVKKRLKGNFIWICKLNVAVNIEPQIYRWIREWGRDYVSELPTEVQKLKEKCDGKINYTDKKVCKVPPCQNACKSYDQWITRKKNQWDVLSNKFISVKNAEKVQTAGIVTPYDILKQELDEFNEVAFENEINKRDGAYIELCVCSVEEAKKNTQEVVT

[7] = target: P. knowlesi β Region II; assay: MGSA inhibition of N-glycanase-treated rhesus erythrocyte binding, P. knowlesi β Region II; type: cell-based, Plasmodium knowlesi; details: rhesus erythrocytes, read-out: 50% Inhibition Conc.
[8] = tested on: Region II of the P. knowlesi Duffy-binding ligand (α); assay: MGSA inhibition of rhesus erythrocyte binding, P. knowlesi α Region II; type: cell-based, Plasmodium knowlesi
[9] = tested on: Region II of the P. vivax Duffy antigen binding protein; assay: MGSA inhibition of N-glycanase-treated rhesus erythrocyte binding, P. vivax Region II; type: cell-based, Plasmodium vivax
Region II of the P. vivax Duffy antigen binding protein, sequence (P22290 211-521): as above
Protocol: Blood was collected in 10% citrate/phosphate/dextrose (CPD) (Baxter, Deerfield, Ill.) and stored at 4° C. for up to four weeks. Standard blood banking methods using two antisera (anti-Fya and anti-Fyb) were used to determine the Duffy phenotypes. Duffy positive erythrocytes used in the binding assays had the Fy(a+b+) phenotype. Erythrocytes were washed three times in RPMI 1640 (GIBCO BRL) and resuspended to a hematocrit of 10% in RPMI 1640 for use in the erythrocyte binding assays. Washed human and rhesus erythrocytes were treated with neuraminidase as described earlier (Comus et al. 1985). Human and rhesus erythrocytes were deglycosylated with the N-glycanase, peptide-N-glycosidase F from Flavobacterium meningosepticum (Oxford Glycosystems). Washed erythrocytes (100 μL) were incubated with mixing for 1 h at 37° C. in 500 μL of PBS containing 10 units of N-glycanase and reaction buffer supplied by the manufacturer. The erythrocytes were washed extensively in PBS to remove the enzyme and stop the deglycosylation.
To study the efficacy of the chemokine MGSA in inhibiting binding, erythrocytes were preincubated in media containing different concentrations of MGSA (0 to 1000 nM) for 1 h at room temperature before they were used in erythrocyte binding assays as described earlier (Su et al. 1995). […]

[10] = target: T2, Duffy blood group antigen (Homo sapiens, UniProt Q16570); details: previously shown (Horuk et al. 1993; Chitnis et al. 1994); cited from earlier work
T2 sequence (Q16570 1-336): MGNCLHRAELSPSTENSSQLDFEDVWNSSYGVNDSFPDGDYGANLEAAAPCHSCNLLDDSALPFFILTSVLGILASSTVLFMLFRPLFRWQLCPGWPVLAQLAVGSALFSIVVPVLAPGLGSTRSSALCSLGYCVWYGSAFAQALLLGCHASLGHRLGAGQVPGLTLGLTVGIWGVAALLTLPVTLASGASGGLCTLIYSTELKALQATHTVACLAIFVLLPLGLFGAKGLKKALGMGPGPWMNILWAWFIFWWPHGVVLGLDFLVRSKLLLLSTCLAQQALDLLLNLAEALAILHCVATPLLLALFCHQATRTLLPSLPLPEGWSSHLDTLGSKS

[11] = target: Region II of the P. knowlesi β protein expressed on the Cos7 cell surface (Plasmodium knowlesi; Herpes simplex …, UniProt P50493)
[12] = target: Region II of the P. vivax Duffy antigen-binding protein (DABP) expressed on the Cos7 cell surface (Plasmodium vivax; Herpes simplex virus, UniProt P22290)
[13] = target: T3, Region II of the P. knowlesi Duffy antigen binding protein (alpha) expressed on the Cos7 cell surface (Plasmodium knowlesi; Herpes simplex …, UniProt P22545)
T3 sequence: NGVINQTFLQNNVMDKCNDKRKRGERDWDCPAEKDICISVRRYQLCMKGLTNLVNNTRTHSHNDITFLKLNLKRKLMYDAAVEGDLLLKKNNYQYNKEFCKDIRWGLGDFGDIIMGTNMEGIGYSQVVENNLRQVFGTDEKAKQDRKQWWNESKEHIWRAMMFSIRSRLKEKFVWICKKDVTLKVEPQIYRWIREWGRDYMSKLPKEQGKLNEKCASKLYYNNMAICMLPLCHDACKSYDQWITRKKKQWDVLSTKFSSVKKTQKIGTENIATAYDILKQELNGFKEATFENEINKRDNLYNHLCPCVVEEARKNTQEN

[14] = tested on: Rubinstein anti-Fy6 antibody; assay: Binding of the Rubinstein anti-Fy6 antibody to Duffy peptides (ELISA); design: species or system murine
[15] = target: T3, Region II of the P. knowlesi Duffy …; remark: listed apart in the source

AELSPSTENSSQLDFEDVWNSSYGVNDSFPDGDYD [HPEP35]
IC50 [1]: 4900 ± 2300 nM
IC50 [2]: > 100000 nM

AELSPSTQNSSQLNSDLWNFSYDGNDSFPDVDYD [RHPEP34]
IC50 [2]: > 100000 nM

melanoma growth stimulating activity (MGSA) (from UniProt P09341) (ligand)
IC50 [3]: 5 nM
IC50 [4]: 5 nM and 6 nM
IC50 [5]: > 1000 nM

melanoma growth stimulating activity [MGSA]
inhibition of binding of P. vivax Region II to Duffy-positive human erythrocytes [6]: inhibit
IC50 [7]: > 1000 nM
inhibition of binding of rhesus erythrocytes to Cos cells expressing Region II of P. knowlesi α ([8]; in words): inhibit
IC50 ([8]; rhesus erythrocytes, treatment none, P. knowlesi α, read-out: 50% Inhibition Conc.): 5 nM
inhibition of binding of N-glycanase-treated rhesus erythrocytes to P. vivax Region II ([9]; in words, 50% inhibition at nanomolar concentrations): inhibits
IC50 ([9]; rhesus erythrocytes, N-glycanase treated, P. vivax DABP, separate experiments, read-out: 50% Inhibition Conc.): 5 nM and 6 nM
binding to the Duffy blood group antigen [10]: binds

B1: RHPEP34 (peptide)
peptide: AELSPSTQNSSQLNSDLWNFSYDGNDSFPDVDYD
IC50 [11]: > 100000 nM
IC50 [12]: 2100 nM
IC50 [13]: 5500 nM

B2: MASSGYVLQAELSPSTENSSQLDFEDVWNSSYGVNDSFPDGDYDANLEAAAPCHSCNLLDDSALPF (peptide)
chain: MASSGYVLQAELSPSTENSSQLDFEDVWNSSYGVNDSFPDGDYDANLEAAAPCHSCNLLDDSALPF
notes: N-terminal peptide of gp-Fyα containing the HPEP35 domain
binding in an ELISA assay (Rubinstein antibody) [14]: bind

B3: HPEP35 (peptide)
peptide: AELSPSTENSSQLDFEDVWNSSYGVNDSFPDGDYD
IC50 [12]: 2900 nM
IC50 [15]: 4900 nM
